Results as given in patent publication US20090291081A1 (AbbVie / Abbott, published 2009).
Numbering of substitutions follows the chain as printed.

B1: ABT2-63 (other)
VL: DIQMTQSPSSLSASVGDRVTITCRASQSIRVFLSWYQQKPGKAPKLLIYNASYLQSGVPSRFSGSGSGTDFTLTISSLQPEDFATYYCQQRALYPTTFGQGTKVEIKR
notes: VK dAb
B2: ABT2-65-1 (other)
VH: EVQLLESGGGLVQPGGSLRLSCAASGFTFEDYQMGWVRQAPGKGLEWVSSISAMGNRTYYADSVKGRFTISRDDSKNTLYLQMKSLRAEDTAVYYCAQNLVRTQSKMWMFDYWGQGTLVTVSS
notes: VH dAb
B3: ABT2-65-2 (other)
VH: B2 VH with E30S, D31T, Q33N, K84N, Q98N
notes: VH dAb
B4: ABT2-65-9 (other)
VH: B2 VH with Q13H, E30R, D31W, Q33P, K84N, Q98E
notes: VH dAb
B5: ABT2-65-11 (other)
VH: B2 VH with E30R, D31A, Q33P, K84N, Q98N
notes: VH dAb
B6: ABT2-65-12 (other)
VH: B2 VH with E30R, D31E, Q33W, K84N, Q98N
notes: VH dAb
B7: ABT2-65-13 (other)
VH: B2 VH with E30R, D31E, K84N, Q98N
notes: VH dAb
B8: ABT2-65-14 (other)
VH: B2 VH with S25P, E30P, D31Y, Q33P, K84N, Q98K
notes: VH dAb
B9: ABT2-65-15 (other)
VH: B2 VH with E30G, D31I, K84N
notes: VH dAb
B10: ABT2-65-16 (other)
VH: B2 VH with K84N, Q98E, R102K, T103W, Q104R, K106A, M107E
notes: VH dAb
B11: ABT2-65-18 (other)
VH: B2 VH with E30G, K84N, Q98E, R102Q, T103W, Q104R, S105I, K106G, M107A
notes: VH dAb
B12: ABT2-65-22 (other)
VH: B2 VH with E30L, D31G, Q33P, R72P, K84N, Q98K
notes: VH dAb
B13: ABT2-65-23 (other)
VH: B2 VH with G16E, E30K, D31V, Q33P, K84N, Q98K
notes: VH dAb
B14: ABT2-65-24 (other)
VH: B2 VH with E30A, D31A, K84N
notes: VH dAb
B15: ABT2-65-25 (other)
VH: B2 VH with K84N, T103Y, Q104R, K106Y, M107Y, S122L
notes: VH dAb
B16: ABT2-65-26 (other)
VH: B2 VH with K84N, R102L, T103V, Q104R, K106G, M107Y
notes: VH dAb
B17: ABT2-65-27 (other)
VH: B2 VH with K84N, Q98E, T103L, Q104W, S105K, K106G, M107R
notes: VH dAb
B18: ABT2-65-28 (other)
VH: B2 VH with K84N, R102Q, T103F, Q104R, S105R, K106S, M107Q
notes: VH dAb
B19: ABT2-65-29 (other)
VH: B2 VH with K84N, R102L, T103V, Q104R, S105V, K106G, M107W
notes: VH dAb
B20: ABT2-65-30 (other)
VH: B2 VH with Q3R, K84N, T103L, Q104N, S105R, K106R, M107D
notes: VH dAb
B21: ABT2-65-31 (other)
VH: B2 VH with K84N, R102K, T103I, Q104M, S105R, K106L, M107K
notes: VH dAb
B22: ABT2-65-32 (other)
VH: B2 VH with K84N, R102A, T103V, Q104S, S105R, K106G, M107R
notes: VH dAb
B23: ABT2-65-33 (other)
VH: B2 VH with K84N, T103Y, Q104M, S105K, K106S, M107Q
notes: VH dAb
B24: ABT2-65-37 (other)
VH: B2 VH with E30A, K84N
notes: VH dAb
B25: ABT2-65-38 (other)
VH: B2 VH with S71Y, K84N
notes: VH dAb
B26: ABT2-65-39 (other)
VH: B2 VH with K84N, Q98G
notes: VH dAb
B27: ABT2-65-46 (other)
VH: B2 VH with K84N, Q98K, N99W, V101T, M107L, W108G, M109Y
notes: VH dAb
B28: ABT2-65-49 (other)
VH: B2 VH with E1G, K84N
notes: VH dAb
B29: ABT2-65-75 (other)
VH: B2 VH with P14H, A23V, K84N, T103L, Q104G, S105K, K106S, M107R
notes: VH dAb
B30: ABT1-122-21 (other)
VL: DIQMTQSPSSLSASVGDRVTITCRASQPIWTELNWYQQKPGKAPKLLIYGSSSLQSGVPTRFSGSGSGTDFTLTISSLQPEDFATYYCQQFAYFPATFGQGTKVEIKR
notes: VK dAb
B31: ABT1-122-511 (other)
VL: B30 VL with S56R, T60S, Q89K
notes: VK dAb
B32: ABT1-141-43 (other)
VL: DIQMTQSPSSLSASVGDRVTITCRASQWIQKQLAWYQQKPGKAPKLLIYSSSYLQSGVPPRFSGSGSGTDFTLTISSLQPEDFATYYCQQHLRVPMTFGQGTKVEIKR
notes: VK dAb
B33: ABT1-141-45 (other)
VL: B32 VL with P60S, P80L, F98L
notes: VK dAb
B34: ABT1-141-47 (other)
VL: B32 VL with S26N, Y53H, P60S, E81Q
notes: VK dAb
B35: ABT1-141-48 (other)
VL: B32 VL with Y49F, Y53H, P60S, T85S
notes: VK dAb
B36: ABT1-141-49 (other)
VL: B32 VL with Q38L, Y53H, L54S, P60S
notes: VK dAb
B37: ABT1-141-50 (other)
VL: B32 VL with A43T, P60S, K103N
notes: VK dAb
B38: ABT1-141-51 (other)
VL: B32 VL with A43V, P60S, Q79E, E105V
notes: VK dAb
B39: ABT1-141-53 (other)
VL: B32 VL with Q38L, A43T, Y49F, P60S
notes: VK dAb
B40: ABT1-141-70 (other)
VL: B32 VL with Y53H, P60S, S67Y
notes: VK dAb
B41: ABT1-141-76 (other)
VL: B32 VL with S26N, Y53H, P60S
notes: VK dAb
B42: ABT1-141-77 (other)
VL: B32 VL with S26N, Y49F, Y53H, P60S, E81Q
notes: VK dAb
B43: ABT1-141-78 (other)
VL: B32 VL with S26N, Y53H, P60S, S67Y, E81Q
notes: VK dAb
B44: ABT1-141-79 (other)
VL: B32 VL with S26N, Y49F, Y53H, P60S
notes: VK dAb
B45: ABT1-141-80 (other)
VL: B32 VL with S26N, Y53H, P60S, S67Y
notes: VK dAb
B46: ABT1-148 (other)
VL: DIQMTQSPSSLSASVGDRVTITCRASQSISSYLNWYQQKPGKAPKLLIGALSGLQSGVPSRFSGSGSGTDFTLTISSLQPEDFATYYCMQWYRHPSTFGQGTKVEIKR
notes: VK dAb
B47: ABT1-158 (other)
VL: DIQMTQSPSSLSASVGDRVTITCRASRSIGRGLNWYQQKPGKAPKLLIGGWSGLQSGVPSRFSGSGSGTDFTLTISSLQPEDFATYYCAQASPLPTFGQGTKVEIKR
notes: VK dAb
B48: ABT1-161 (other)
VL: DIQMTQSPSSLSASVGDRVTITCRASHAITGSLRWYQQKPGKAPKLLISGGSVLQSGVPSRFSGSGSGTDFTLTISSLQPEDFATYYCAQWLGGPMTFGQGTKVEIKR
notes: VK dAb
B49: ABT1-162 (other)
VL: DIQMTQSPSSLSASVGGRVTITCRASHYIRNRLHWYQQKPGKAPKLLIARGSALQSGVPSRFSGSGSGTDFTLTISSLQPEDFATYYCVQDGYLPPTFGQGTKVEIKR
notes: VK dAb
B50: ABT1-165 (other)
VL: DIQMTQSPSSLSASVGDRVTITCRASSSIRAGLAWYQQKPGKAPKLLIGPESGLQSGVPSRFSGSGSGTDFTLTISSLQPEDFATYYCGQGIDGPATFGQGTKVEIKR
notes: VK dAb

molecular target: T1, human IL-1β (human, UniProt P01584 117-269); test: IC50 column of Table 63; receptor binding assay presumed
T1 construct: antigen of the ABT2 dAbs; also called hIL-1β; IL-1 beta

| Binder | IC50 |
| --- | --- |
| B1 | 1000 nM |
| B2 | 100 nM |
| B3 | 20 nM |
| B4 | 100 nM |
| B5 | 50 nM |
| B6 | 20 nM |
| B7 | 20 nM |
| B8 | 1000 nM |
| B9 | 100 nM |
| B10 | 200 nM |
| B11 | 20 nM |
| B12 | 100 nM |
| B13 | 800 nM |
| B14 | 50 nM |
| B15 | 4 nM |
| B16 | 20 nM |
| B17 | 3.5 nM |
| B18 | 5 nM |
| B19 | 20 nM |
| B20 | 20 nM |
| B21 | 3 nM |
| B22 | 4 nM |
| B23 | 20 nM |
| B24 | 100 nM |
| B25 | 30 nM |
| B26 | 300 nM |
| B27 | 30 nM |
| B28 | 20 nM |
| B29 | 30 nM |

molecular target: T2, human IL-1α (human, UniProt P01583 113-271); test: Table 62 IC50; RBA presumed
T2 construct: also called IL-1alpha; hIL-1α
T2 sequence (looked up): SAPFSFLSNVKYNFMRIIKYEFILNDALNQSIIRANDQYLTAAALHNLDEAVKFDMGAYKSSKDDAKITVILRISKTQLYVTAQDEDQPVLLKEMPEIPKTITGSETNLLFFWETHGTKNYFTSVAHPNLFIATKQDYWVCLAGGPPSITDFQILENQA

| Binder | IC50 |
| --- | --- |
| B30 | 80 nM |
| B31 | 10 nM |
| B32 | 3 nM |
| B33 | 100 nM |
| B34 | 1 nM |
| B35 | 3 nM |
| B36 | 3 nM |
| B37 | 10 nM |
| B38 | 10 nM |
| B39 | 50 nM |
| B40 | 1 nM |
| B41 | 1 nM |
| B42 | 3 nM |
| B43 | 3 nM |
| B44 | 3 nM |
| B45 | 3 nM |
| B46 | 400 nM |
| B47 | 2 nM |
| B48 | > 1000 nM |
| B49 | 1000 nM |
| B50 | > 1000 nM |

molecular target: T2, human IL-1α; test: cell-based or functional assay

| Binder | ND50 |
| --- | --- |
| B30 | 100 nM |
| B31 | 18 nM |
| B32 | 5 nM |
| B33 | 100 nM |
| B34 | 1 nM |
| B35 | 1 nM |
| B36 | 5 nM |
| B37 | 20 nM |
| B38 | 20 nM |
| B39 | 10 nM |
| B40 | 1 nM |
| B41 | 1 nM |
| B42 | 1 nM |
| B43 | 0.7 nM |
| B44 | 2.4 nM |
| B45 | 1.7 nM |
| B46 | 100 nM |
| B47 | < 100 nM |
| B48 | 8 nM |
| B49 | 6.2 nM |
| B50 | 1000 nM |
